Numbering of substitutions follows the chain as printed. Values belong to the molecule of their own block, whether it stands above or below them.
Columns and labels:
Experiment in all cases: Immunofluorescence of anti-FZD5 Fab binding to CHO cells overexpressing Frizzled CRD
Parameters in all cases: key: −: no binding; +: very weak binder; ++: weak binder; +++: good binder; ++++: very good binder
[1] = biological target: T1, FZD1 CRD (Homo sapiens, UniProt Q9UP38)
T1 construct: D112-P238; GPI anchor signal (C); expressed in transfected cells; host or cells: CHO cells, lentiviral pLenti-puro
Outline: (§1)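 CHO lines each stably expressing one human Frizzled CRD as a myc-tagged, GPI-anchored cell-surface cassette (FZD_CRD-MYC-GPI, lentiviral pLenti-puro) were probed with anti-FZD5 Fabs. Binding was read by immunofluorescence, alongside flow cytometry, across the 10-member panel.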

[2] = biological target: T2, FZD10 CRD (Homo sapiens, UniProt Q9ULW2)
T2 construct: 30-156; GPI anchor signal (C); expressed in transfected cells; host or cells: CHO cells, lentiviral pLenti-puro
T2 sequence (Q9ULW2 30-156): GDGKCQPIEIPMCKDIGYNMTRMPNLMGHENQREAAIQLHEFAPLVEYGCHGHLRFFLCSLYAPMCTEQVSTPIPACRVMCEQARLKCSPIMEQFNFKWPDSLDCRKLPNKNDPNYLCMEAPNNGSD
Outline: as §1

[3] = biological target: T3, FZD2 CRD (Homo sapiens, UniProt Q14332)
T3 construct: D35-P161; GPI anchor signal (C); expressed in transfected cells; host or cells: CHO cells, lentiviral pLenti-puro
Outline: as §1

[4] = biological target: T4, FZD4 CRD (Homo sapiens, UniProt Q9ULV1)
T4 construct: E42-V167; GPI anchor signal (C); expressed in transfected cells; host or cells: CHO cells, lentiviral pLenti-puro
T4 sequence (Q9ULV1 42-167): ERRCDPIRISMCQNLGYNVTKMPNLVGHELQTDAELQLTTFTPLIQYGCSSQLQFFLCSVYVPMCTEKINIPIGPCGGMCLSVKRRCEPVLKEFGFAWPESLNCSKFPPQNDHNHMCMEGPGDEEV
Outline: as §1

[5] = biological target: T5, FZD5 CRD (Homo sapiens, UniProt Q13467)
T5 construct: K29-T156; GPI anchor signal (C); expressed in transfected cells; host or cells: CHO cells, lentiviral pLenti-puro
T5 sequence (Q13467 29-156): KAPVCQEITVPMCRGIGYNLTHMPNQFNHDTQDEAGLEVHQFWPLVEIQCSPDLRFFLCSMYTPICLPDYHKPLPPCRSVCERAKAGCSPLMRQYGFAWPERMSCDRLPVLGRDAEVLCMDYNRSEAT
Outline: as §1

[6] = biological target: T6, FZD6 CRD (Homo sapiens, UniProt O60353)
T6 construct: S20-P146; GPI anchor signal (C); expressed in transfected cells; host or cells: CHO cells, lentiviral pLenti-puro
T6 sequence (O60353 20-146): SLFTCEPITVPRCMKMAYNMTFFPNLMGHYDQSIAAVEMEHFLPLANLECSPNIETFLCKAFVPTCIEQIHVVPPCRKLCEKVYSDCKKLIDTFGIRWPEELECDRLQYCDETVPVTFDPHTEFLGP
Outline: as §1

[7] = biological target: T7, FZD9 CRD (Homo sapiens, UniProt O00144)
T7 construct: G35-A161; GPI anchor signal (C); expressed in transfected cells; host or cells: CHO cells, lentiviral pLenti-puro
T7 sequence (O00144 35-161): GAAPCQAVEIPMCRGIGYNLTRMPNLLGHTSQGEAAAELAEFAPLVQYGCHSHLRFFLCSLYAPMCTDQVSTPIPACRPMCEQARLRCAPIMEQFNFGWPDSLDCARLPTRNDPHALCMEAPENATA
Outline: as §1

Immunofluorescence binding, Frizzled CRD overexpressed on CHO cells: FZD1 [1]: −
Immunofluorescence binding, Frizzled CRD overexpressed on CHO cells: FZD10 [2]: −
Immunofluorescence binding, Frizzled CRD overexpressed on CHO cells: FZD2 [3]: −
Immunofluorescence binding, Frizzled CRD overexpressed on CHO cells: FZD4 [4]: −
Immunofluorescence binding, Frizzled CRD overexpressed on CHO cells: FZD5 [5]: ++++
Immunofluorescence binding, Frizzled CRD overexpressed on CHO cells: FZD6 [6]: −
Immunofluorescence binding, Frizzled CRD overexpressed on CHO cells: FZD9 [7]: −
B1: Fab-2919: anti-FZD5 Fab with antibody variable region Fv-2919; CDR SEQ ID NOs: 35, 36, 58, 97, 134, 155 (antibody, V domains shown)
VH: EVQLVESGGGLVQPGGSLRLSCAASGFNISYSYIHWVRQAPGKGLEWVASIYSSSGSTSYADSVKGRFTISADTSKNTAYLQMNSLRAEDTAVYYCARGAIDYWGQGTLVTVSS
VL: DIQMTQSPSSLSASVGDRVTITCRASQSVSSAVAWYQQKPGKAPKLLIYSASSLYSGVPSRFSGSRSGTDFTLTISSLQPEDFATYYCQQWYSSGHVLITFGQGTKVEIK

Immunofluorescence binding, Frizzled CRD overexpressed on CHO cells: FZD1 [1]: −
Immunofluorescence binding, Frizzled CRD overexpressed on CHO cells: FZD10 [2]: −
Immunofluorescence binding, Frizzled CRD overexpressed on CHO cells: FZD2 [3]: −
Immunofluorescence binding, Frizzled CRD overexpressed on CHO cells: FZD4 [4]: −
Immunofluorescence binding, Frizzled CRD overexpressed on CHO cells: FZD5 [5]: ++++
Immunofluorescence binding, Frizzled CRD overexpressed on CHO cells: FZD6 [6]: −
Immunofluorescence binding, Frizzled CRD overexpressed on CHO cells: FZD9 [7]: −
B2: Fab-2924: anti-FZD5 Fab with antibody variable region Fv-2924; CDR SEQ ID NOs: 35, 36, 63, 101, 139, 153 (antibody, V domains shown)
VH: B1 VH with S54Y, S55Y, G56S, I101L
VL: DIQMTQSPSSLSASVGDRVTITCRASQSVSSAVAWYQQKPGKAPKLLIYSASSLYSGVPSRFSGSRSGTDFTLTISSLQPEDFATYYCQQWYSGHSLITFGQGTKVEIK

Immunofluorescence binding, Frizzled CRD overexpressed on CHO cells: FZD1 [1]: −
Immunofluorescence binding, Frizzled CRD overexpressed on CHO cells: FZD10 [2]: −
Immunofluorescence binding, Frizzled CRD overexpressed on CHO cells: FZD2 [3]: −
Immunofluorescence binding, Frizzled CRD overexpressed on CHO cells: FZD4 [4]: −
Immunofluorescence binding, Frizzled CRD overexpressed on CHO cells: FZD5 [5]: ++++
Immunofluorescence binding, Frizzled CRD overexpressed on CHO cells: FZD6 [6]: −
Immunofluorescence binding, Frizzled CRD overexpressed on CHO cells: FZD9 [7]: −
B3: Fab-2923: anti-FZD5 Fab with antibody variable region Fv-2923; CDR SEQ ID NOs: 35, 36, 62, 100, 138, 162 (antibody, V domains shown)
VH: B1 VH with I29L, S30Y, S32Y, I34M, I101M
VL: B2 VL with S93G, G94Y, H95S, S96A

Immunofluorescence binding, Frizzled CRD overexpressed on CHO cells: FZD1 [1]: −
Immunofluorescence binding, Frizzled CRD overexpressed on CHO cells: FZD10 [2]: −
Immunofluorescence binding, Frizzled CRD overexpressed on CHO cells: FZD2 [3]: −
Immunofluorescence binding, Frizzled CRD overexpressed on CHO cells: FZD4 [4]: −
Immunofluorescence binding, Frizzled CRD overexpressed on CHO cells: FZD5 [5]: ++++
Immunofluorescence binding, Frizzled CRD overexpressed on CHO cells: FZD6 [6]: −
Immunofluorescence binding, Frizzled CRD overexpressed on CHO cells: FZD9 [7]: −
B4: Fab-2922: anti-FZD5 Fab with antibody variable region Fv-2922; CDR SEQ ID NOs: 35, 36, 61, 99, 137, 171 (antibody, V domains shown)
VH: EVQLVESGGGLVQPGGSLRLSCAASGFNIYSSYMHWVRQAPGKGLEWVASISPYSGYTSYADSVKGRFTISADTSKNTAYLQMNSLRAEDTAVYYCARTVRGSKKPYFSGWAMDYWGQGTLVTVSS
VL: B2 VL with W91S, Y92F, S93V, G94Y, H95P, S96Y

Immunofluorescence binding, Frizzled CRD overexpressed on CHO cells: FZD1 [1]: −
Immunofluorescence binding, Frizzled CRD overexpressed on CHO cells: FZD10 [2]: −
Immunofluorescence binding, Frizzled CRD overexpressed on CHO cells: FZD2 [3]: −
Immunofluorescence binding, Frizzled CRD overexpressed on CHO cells: FZD4 [4]: −
Immunofluorescence binding, Frizzled CRD overexpressed on CHO cells: FZD5 [5]: ++++
Immunofluorescence binding, Frizzled CRD overexpressed on CHO cells: FZD6 [6]: −
Immunofluorescence binding, Frizzled CRD overexpressed on CHO cells: FZD9 [7]: −
B5: Fab-2918: anti-FZD5 Fab with antibody variable region Fv-2918; CDR SEQ ID NOs: 35, 36, 57, 96, 133, 169 (antibody, V domains shown)
VH: EVQLVESGGGLVQPGGSLRLSCAASGFNLSYSSIHWVRQAPGKGLEWVASIYSSYSSTSYADSVKGRFTISADTSKNTAYLQMNSLRAEDTAVYYCARFGYWAIDYWGQGTLVTVSS
VL: DIQMTQSPSSLSASVGDRVTITCRASQSVSSAVAWYQQKPGKAPKLLIYSASSLYSGVPSRFSGSRSGTDFTLTISSLQPEDFATYYCQQAFGASLFTFGQGTKVEIK

Immunofluorescence binding, Frizzled CRD overexpressed on CHO cells: FZD1 [1]: −
Immunofluorescence binding, Frizzled CRD overexpressed on CHO cells: FZD10 [2]: −
Immunofluorescence binding, Frizzled CRD overexpressed on CHO cells: FZD2 [3]: −
Immunofluorescence binding, Frizzled CRD overexpressed on CHO cells: FZD4 [4]: −
Immunofluorescence binding, Frizzled CRD overexpressed on CHO cells: FZD5 [5]: ++++
Immunofluorescence binding, Frizzled CRD overexpressed on CHO cells: FZD6 [6]: −
Immunofluorescence binding, Frizzled CRD overexpressed on CHO cells: FZD9 [7]: −
B6: Fab-2920: anti-FZD5 Fab with antibody variable region Fv-2920; CDR SEQ ID NOs: 35, 36, 59, 98, 135, 170 (antibody, V domains shown)
VH: B1 VH with S32Y, S53P, A100G, I101M
VL: B5 VL with A91W, G93A, A94G, S95A, F97I

Immunofluorescence binding, Frizzled CRD overexpressed on CHO cells: FZD1 [1]: −
Immunofluorescence binding, Frizzled CRD overexpressed on CHO cells: FZD10 [2]: −
Immunofluorescence binding, Frizzled CRD overexpressed on CHO cells: FZD2 [3]: −
Immunofluorescence binding, Frizzled CRD overexpressed on CHO cells: FZD4 [4]: −
Immunofluorescence binding, Frizzled CRD overexpressed on CHO cells: FZD5 [5]: ++++
Immunofluorescence binding, Frizzled CRD overexpressed on CHO cells: FZD6 [6]: −
Immunofluorescence binding, Frizzled CRD overexpressed on CHO cells: FZD9 [7]: −
B7: Fab-2921: anti-FZD5 Fab with antibody variable region Fv-2921; CDR SEQ ID NOs: 35, 36, 60, 98, 136, 162 (antibody, V domains shown)
VH: B1 VH with S32Y, S53P, I101M
VL: B5 VL with A91W, F92Y, G93A, A94G, F97I

Immunofluorescence binding, Frizzled CRD overexpressed on CHO cells: FZD1 [1]: +++
Immunofluorescence binding, Frizzled CRD overexpressed on CHO cells: FZD10 [2]: −
Immunofluorescence binding, Frizzled CRD overexpressed on CHO cells: FZD2 [3]: +++
Immunofluorescence binding, Frizzled CRD overexpressed on CHO cells: FZD4 [4]: −
Immunofluorescence binding, Frizzled CRD overexpressed on CHO cells: FZD5 [5]: ++++
Immunofluorescence binding, Frizzled CRD overexpressed on CHO cells: FZD6 [6]: −
Immunofluorescence binding, Frizzled CRD overexpressed on CHO cells: FZD9 [7]: −
B8: Fab-2927: anti-FZD5 Fab with antibody variable region Fv-2927; CDR SEQ ID NOs: 35, 36, 66, 104, 142, 174 (antibody, V domains shown)
VH: B5 VH with L29I, S30Y, I34M, S53P, S56G, S57Y, F99Y, W102Y, A103G, I104F
VL: B2 VL with Y92G, G94H, H95G, S96Y
